From patent US20070178101A1 come the findings set out here.

For assay [1], the target named is Ovr110-HA on stably transfected mouse LMTK cells (human) (UniProt Q7Z7D3). As to the kind of experiment: FACS on Ovr110-HA transfected mouse LMTK cells, secondary antibody alone.
Assay [2] has the same target. In words: FACS on Ovr110-HA transfected mouse LMTK cells, secondary antibody alone, gate I.

In assay [1], Donkey Anti-Mouse Ig-PE (antibody) gave a Mean of Fluorescence of 0.48. In assay [2], this substance had a Percentage of cells of 0.6.
